Assay results from patent US20220332804A1 (CSL INNOVATION, published 2022).

Legend:
[1] = molecular target: T1, human C2a (activated human C2) (human, UniProt P06681 244-752); assay: SPR, HBS-EP, pH 7.3, 37 C
T1 construct: the whole entry is named here; also called huC2a
T1 sequence: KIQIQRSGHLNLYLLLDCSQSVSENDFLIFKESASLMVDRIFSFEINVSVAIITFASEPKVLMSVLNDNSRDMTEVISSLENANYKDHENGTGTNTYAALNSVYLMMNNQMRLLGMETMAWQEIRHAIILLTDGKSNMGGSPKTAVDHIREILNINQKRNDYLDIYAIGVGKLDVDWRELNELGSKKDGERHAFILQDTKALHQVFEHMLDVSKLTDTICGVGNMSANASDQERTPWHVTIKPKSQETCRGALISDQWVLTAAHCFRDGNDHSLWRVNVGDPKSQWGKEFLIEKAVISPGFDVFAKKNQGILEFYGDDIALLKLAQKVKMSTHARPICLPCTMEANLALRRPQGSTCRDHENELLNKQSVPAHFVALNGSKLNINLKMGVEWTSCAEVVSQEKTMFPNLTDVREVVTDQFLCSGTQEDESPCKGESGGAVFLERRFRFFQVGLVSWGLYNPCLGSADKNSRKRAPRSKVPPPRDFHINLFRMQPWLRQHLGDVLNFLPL
Method: (§1) Surface plasmon resonance (SPR, Biacore) was used for all binding affinity analyses. In brief, goat anti-human IgG was directly immobilised onto the carboxymethyl dextran surface of CM5 sensorchips to approximately 12,000 RU using standard NHS/EDC chemistry at pH 5. The immobilised antibody surface was pre-conditioned with ten injections of polyclonal human IgG (Privigen 60 s) prepared at 1 μg/mL. Ligands (anti-C2 mAbs) were captured at the beginning of each cycle as described below. An adjacent spot or flow cell in which only Polyclonal IgG was capture was used as a reference surface. The goat anti-human IgG Fc antibody surface was regenerate in 100 mM H3PO4, injected for 45 seconds at the end of each cycle. Experiments were performed at 37° C. and the flow rate of each experiment was kept constant at 30 μL/min.
(§2) Purified human C2 zymogen and human C2a were tested at concentrations ranging from 1.9 to 500 nM while human C2b was tested at concentrations ranging from 1.9 to 1000 nM. All experiments were performed in HBS-EP buffer supplemented with 0.1% BSA at 37° C. and pH 7.3. Each antibody was tested against human C2 zymogen and human C2a in duplicate and against C2b in quadruplicate. The flow rate was set to 30 μL/min. Each analyte concentration was tested in duplicate.

human C2b = molecular target: T2, human C2b (human, UniProt P06681 21-243); assay: SPR, HBS-EP, pH 7.3, 37 C
T2 construct: the whole entry is named here
T2 sequence: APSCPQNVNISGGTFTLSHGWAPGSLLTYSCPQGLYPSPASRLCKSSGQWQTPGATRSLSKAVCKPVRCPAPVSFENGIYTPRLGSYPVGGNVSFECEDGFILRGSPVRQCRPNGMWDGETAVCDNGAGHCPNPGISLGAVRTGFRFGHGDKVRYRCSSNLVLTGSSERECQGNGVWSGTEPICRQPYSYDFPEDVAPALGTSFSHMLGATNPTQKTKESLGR
Method: as §1, §2

[2] = molecular target: T3, human complement C2 zymogen (human, UniProt P06681 21-752); assay: SPR, human C2 zymogen analyte, HBS-EP, pH 7.3, 37 C
T3 construct: also called huC2; human C2
T3 sequence: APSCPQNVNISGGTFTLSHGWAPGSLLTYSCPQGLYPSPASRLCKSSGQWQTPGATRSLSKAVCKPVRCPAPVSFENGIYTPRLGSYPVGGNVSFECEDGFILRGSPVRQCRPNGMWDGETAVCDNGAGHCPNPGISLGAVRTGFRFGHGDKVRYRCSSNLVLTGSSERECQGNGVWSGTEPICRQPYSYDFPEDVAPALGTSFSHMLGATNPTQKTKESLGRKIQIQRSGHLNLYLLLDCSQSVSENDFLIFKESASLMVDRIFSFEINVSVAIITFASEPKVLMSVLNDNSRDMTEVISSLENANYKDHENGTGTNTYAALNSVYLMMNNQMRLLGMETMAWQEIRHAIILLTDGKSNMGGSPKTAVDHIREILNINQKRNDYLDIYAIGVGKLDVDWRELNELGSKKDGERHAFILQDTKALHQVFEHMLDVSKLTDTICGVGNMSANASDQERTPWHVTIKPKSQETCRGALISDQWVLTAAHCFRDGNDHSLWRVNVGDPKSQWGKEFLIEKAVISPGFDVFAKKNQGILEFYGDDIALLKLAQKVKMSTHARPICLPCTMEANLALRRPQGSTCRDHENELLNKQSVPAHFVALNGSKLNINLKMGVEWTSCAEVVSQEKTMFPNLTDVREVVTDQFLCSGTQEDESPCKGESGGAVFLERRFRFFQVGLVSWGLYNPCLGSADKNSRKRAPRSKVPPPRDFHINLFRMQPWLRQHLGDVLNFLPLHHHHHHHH
Method: as §1, §2

[3] = molecular target: T4, cynomolgus monkey FcRn/β2m (cynomolgus monkey, UniProt Q8SPV9 24-297; Q8SPW0 21-119, limits assumed); assay: SPR, immobilised antibody, cyno FcRn/b2m analyte, pH 6.0; pH 6.0
T4 construct: injected in solution over immobilised antibody; also called Cyno FcRn/β2m
Method: Anti-C2 mAbs (1 μg/mL at pH 5) were immobilized on a carboxylmethyldextran (CM5) sensorchip surface using standard EDC/NHS chemistry. Human and Cyno FcRn/β2m (40 μM) were prepared in running buffer (10 mM HEPES, 150 mM NaCl, 10 mM MES adjusted to either pH 6 or pH 7.3) and injected on the immobilized anti-C2 surface at concentrations ranging from 0.078 to 40 μM, prepared in two-fold dilutions in running buffer. Association and dissociation phases were monitored for 180 and 600 seconds, respectively. […] Double referenced sensorgrams were fitted to either a 1:1 kinetic model (pH 6), including a term for mass transport limitation or to a 1:1 steady state model (pH 7.3) where responses at the end of the association phase were plotted against respective concentrations.
Binding to both human and cynomolgus monkey FcRn was tested using the SPR methods described above.

[4] = molecular target: T3, human complement C2 zymogen; assay: SPR kinetics, captured antibody, analyte huC2 0 mM Ca^2+, pH 7.3
Method: as §1
(§3) Calcium concentrations ranged from zero (i.e. no added calcium, control) to near physiological levels (0.02, 0.2 and 2 mM CaCl₂.2H₂O, MW 147.02 Da).

[5] = molecular target: T3, human complement C2 zymogen; assay: SPR steady state, captured antibody, analyte huC2 0 mM Ca^2+, pH 6.0
Method: as §1, §3

[6] = molecular target: T3, human complement C2 zymogen; assay: SPR kinetics, captured antibody, analyte huC2 20 mM Ca^2+ (so in the source), pH 7.3
Method: as §1, §3

[7] = molecular target: T3, human complement C2 zymogen; assay: SPR kinetics, captured antibody, analyte huC2 200 mM Ca^2+ (so in the source), pH 7.3
Method: as §1, §3

[8] = molecular target: T3, human complement C2 zymogen; assay: SPR kinetics, captured antibody, analyte huC2 2000 mM Ca^2+ (so in the source), pH 7.3
Method: as §1, §3

[9] = molecular target: T3, human complement C2 zymogen; assay: SPR steady state, captured antibody, analyte huC2 20 mM Ca^2+ (so in the source), pH 6.0
Method: as §1
(§4) Sensogram data was double-referenced against a reference anti-IgG surface (i.e. minus anti-C2 mAb) and blank buffer injections obtained within each experiment. The binding data was fit to 1:1 (kinetic or steady-state) model using local Rmax and null refraction index (RI=0) when appropriate. Buffers and solutions were filtered (0.22 μm) prior to use.
as §3

[10] = molecular target: T3, human complement C2 zymogen; assay: SPR steady state, captured antibody, analyte huC2 200 mM Ca^2+ (so in the source), pH 6.0
Method: as §1, §4, §3

[11] = molecular target: T3, human complement C2 zymogen; assay: SPR steady state, captured antibody, analyte huC2 2000 mM Ca^2+ (so in the source), pH 6.0
Method: as §1, §3

[12] = molecular target: T3, human complement C2 zymogen; assay: SPR kinetics, captured antibody, analyte huC2 0 mM Ca^2+, pH 7.3; remark: listed apart in the source
Method: as §1, §4, §3

[13] = molecular target: T3, human complement C2 zymogen; assay: SPR kinetics, captured antibody, analyte huC2 (so in the source), pH 7.3
Method: as §1, §4, §3

[14] = molecular target: T3, human complement C2 zymogen; assay: SPR steady state, captured antibody, analyte huC2 0 mM Ca^2+, pH 6.0; remark: listed apart in the source
Method: as §1, §4, §3

[15] = molecular target: T3, human complement C2 zymogen; assay: SPR kinetics, captured antibody, analyte huC2 20 mM Ca^2+ (so in the source), pH 7.3; remark: listed apart in the source
Method: as §1, §4, §3

[16] = molecular target: T3, human complement C2 zymogen; assay: SPR kinetics, captured antibody, analyte huC2 200 mM Ca^2+ (so in the source), pH 7.3; remark: listed apart in the source
Method: as §1, §4, §3

[17] = molecular target: T3, human complement C2 zymogen; assay: SPR kinetics, captured antibody, analyte huC2 2000 mM Ca^2+ (so in the source), pH 7.3; remark: listed apart in the source
Method: as §1, §4, §3

[18] = molecular target: T3, human complement C2 zymogen; assay: SPR steady state, captured antibody, analyte huC2 20 mM Ca^2+ (so in the source), pH 6.0; remark: listed apart in the source
Method: as §1, §4, §3

[19] = molecular target: T3, human complement C2 zymogen; assay: SPR steady state, captured antibody, analyte huC2 200 mM Ca^2+ (so in the source), pH 6.0; remark: listed apart in the source
Method: as §1, §4, §3

[20] = molecular target: T3, human complement C2 zymogen; assay: SPR steady state, captured antibody, analyte huC2 2000 mM Ca^2+ (so in the source), pH 6.0; remark: listed apart in the source
Method: as §1, §4, §3

T4 sequence (Q8SPV9 24-297 limits assumed, chain 1 of 2): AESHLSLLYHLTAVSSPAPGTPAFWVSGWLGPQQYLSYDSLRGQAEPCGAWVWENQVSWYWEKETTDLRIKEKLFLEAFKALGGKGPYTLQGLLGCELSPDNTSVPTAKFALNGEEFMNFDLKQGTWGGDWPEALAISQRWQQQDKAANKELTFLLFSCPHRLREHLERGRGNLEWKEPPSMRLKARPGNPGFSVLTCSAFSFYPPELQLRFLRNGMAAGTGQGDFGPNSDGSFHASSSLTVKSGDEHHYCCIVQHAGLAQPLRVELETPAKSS
T4 sequence (Q8SPW0 21-119 limits assumed, chain 2 of 2): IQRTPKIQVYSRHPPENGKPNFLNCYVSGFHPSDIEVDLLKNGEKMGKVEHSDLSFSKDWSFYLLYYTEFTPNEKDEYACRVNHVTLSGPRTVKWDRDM

B1: RF16-226 (antibody, human IgG4 S228P, lambda)
heavy: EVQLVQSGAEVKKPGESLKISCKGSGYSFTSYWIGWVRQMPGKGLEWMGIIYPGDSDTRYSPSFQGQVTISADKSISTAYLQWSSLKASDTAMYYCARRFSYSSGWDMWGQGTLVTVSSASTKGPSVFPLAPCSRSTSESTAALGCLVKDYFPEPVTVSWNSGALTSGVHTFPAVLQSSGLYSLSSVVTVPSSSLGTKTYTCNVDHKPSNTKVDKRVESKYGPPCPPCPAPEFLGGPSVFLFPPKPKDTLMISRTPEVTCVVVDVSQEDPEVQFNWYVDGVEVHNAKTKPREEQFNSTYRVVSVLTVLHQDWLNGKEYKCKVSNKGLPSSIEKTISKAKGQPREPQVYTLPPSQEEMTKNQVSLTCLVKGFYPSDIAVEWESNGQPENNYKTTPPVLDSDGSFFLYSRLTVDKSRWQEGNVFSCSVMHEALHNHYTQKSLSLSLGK
light: SYELTQPPSVSVSPGQTARITCSGDALTSKYVAWYQQKSGLAPLLVIYEDTRRPSGIPAKFSGSSSGSVATLTISGAHGDDEADYYCYSTDASGHQRVFGGGTKLTVLSQPKAAPSVTLFPPSSEELQANKATLVCLISDFYPGAVTVAWKADGSPVKAGVETTKPSKQSNNKYAASSYLSLTPEQWKSHRSYSCQVTHEGSTVEKTVAPTECS
notes: Human antibody from a phage display library, unmodified Fc; also called WT
binding result [1]: no binding (tested: C2a tested up to 500 nM) | binding result (human C2b): no binding (tested: C2b tested up to 1000 nM) | Kd [2]: 8 nM | Kd [3]: 2100 nM | Kd [4]: 9.2 nM | koff [4]: 0.00499 s⁻¹ | kon [4]: 546000 M⁻¹ s⁻¹ | Kd [5]: 93.6 nM | Kd [6]: 10.2 nM | koff [6]: 0.0057 s⁻¹ | kon [6]: 569000 M⁻¹ s⁻¹ | Kd [7]: 9.3 nM | koff [7]: 0.0059 s⁻¹ | kon [7]: 631000 M⁻¹ s⁻¹ | Kd [8]: 11.1 nM | koff [8]: 0.0062 s⁻¹ | kon [8]: 561000 M⁻¹ s⁻¹ | Kd [9]: 87.4 nM | Kd [10]: 94.2 nM | Kd [11]: 111 nM

B2: RF16-226 YTE (Fc mutations M252Y, S254T, T256E) (antibody, human IgG4 S228P, lambda)
heavy: EVQLVQSGAEVKKPGESLKISCKGSGYSFTSYWIGWVRQMPGKGLEWMGIIYPGDSDTRYSPSFQGQVTISADKSISTAYLQWSSLKASDTAMYYCARRFSYSSGWDMWGQGTLVTVSSASTKGPSVFPLAPCSRSTSESTAALGCLVKDYFPEPVTVSWNSGALTSGVHTFPAVLQSSGLYSLSSVVTVPSSSLGTKTYTCNVDHKPSNTKVDKRVESKYGPPCPPCPAPEFLGGPSVFLFPPKPKDTLYITREPEVTCVVVDVSQEDPEVQFNWYVDGVEVHNAKTKPREEQFNSTYRVVSVLTVLHQDWLNGKEYKCKVSNKGLPSSIEKTISKAKGQPREPQVYTLPPSQEEMTKNQVSLTCLVKGFYPSDIAVEWESNGQPENNYKTTPPVLDSDGSFFLYSRLTVDKSRWQEGNVFSCSVMHEALHNHYTQKSLSLSLGK
light: SYELTQPPSVSVSPGQTARITCSGDALTSKYVAWYQQKSGLAPLLVIYEDTRRPSGIPAKFSGSSSGSVATLTISGAHGDDEADYYCYSTDASGHQRVFGGGTKLTVLSQPKAAPSVTLFPPSSEELQANKATLVCLISDFYPGAVTVAWKADGSPVKAGVETTKPSKQSNNKYAASSYLSLTPEQWKSHRSYSCQVTHEGSTVEKTVAPTECS
Kd [3]: 450 nM | Kd [12]: 8.5 nM | koff [12]: 0.00495 s⁻¹ | kon [12]: 584000 M⁻¹ s⁻¹ | kon [13]: 601000 M⁻¹ s⁻¹ | Kd [14]: 74.3 nM | Kd [15]: 7.9 nM | koff [15]: 0.00521 s⁻¹ | kon [15]: 657000 M⁻¹ s⁻¹ | Kd [16]: 8.3 nM | koff [16]: 0.00543 s⁻¹ | kon [16]: 653000 M⁻¹ s⁻¹ | Kd [17]: 9.9 nM | koff [17]: 0.00592 s⁻¹ | Kd [18]: 71 nM | Kd [19]: 74.6 nM | Kd [20]: 92.8 nM
